The data set has as its target CTC1 (CST subunit);STN1 (CST subunit);TEN1 (CST subunit);Polα-primase, endogenous, co-purified with CST (Homo sapiens;Homo sapiens;Homo …, UniProt Q2NKJ3;Q9H668;Q86WV5;P09884;Q14181;P49642;P49643 …, |||). Put plainly: EMSA; Kd,app shown only in figure; CST EMSA: 20 mM HEPES-NaOH pH 8.0, 150 mM NaCl, 2 mM MgCl2, 0.2 mM EGTA, 0.1% NP-40, 10% glycerol, 1 mM DTT, 2 h on ice, 0.7% agarose 1x TBE gel at 4 °C; POT1-TPP1N EMSA: C-strand synthesis buffer, 30 min at 30 °C. The conditions noted are these: protein: recombinant;recombinant;recombinant;native; tags: N-terminal 3xFLAG;N-terminal Myc;N-terminal HA;; copies: 1;1;1;1;1;1;1; label: 5'-32P; folds into G-quadruplex in KCl and NaCl, not LiCl. For orientation: Mobility shift assays separate free from complexed probe on a gel.

B1: 15xTEL (ssDNA)
DNA: TTAGGGTTAGGGTTAGGGTTAGGGTTAGGGTTAGGGTTAGGGTTAGGGTTAGGGTTAGGGTTAGGGTTAGGGTTAGGGTTAGGGTTAGGG
For the molecule B1, the binding result is listed as “binds”.

B2: 9xTEL (ssDNA)
DNA: TTAGGGTTAGGGTTAGGGTTAGGGTTAGGGTTAGGGTTAGGGTTAGGGTTAGGG
With B2, the binding result is “binds”.

The values above are taken from PMC9402439, “Reconstitution of a telomeric replicon organized by CST”.
